Assay: label from the status in PepcDB records

Sequence	protein production
MTSNGQQGKPNLPEKDNLPRELGTQRINSPIARMGMFGAKTTGDTSGYGRLRVYRHVPAAAQRPYSDPSDPRTAYFDEVADALERSLKEIGTPYDTAISRVVVDRGEITFHVQREHLLDVATRLRDDPALRFELCLGVTGVHYPEDEGNELHAVYALRSITHNYEIRLEVSCPDSDPHIPSIVSVYPTNDWHEREAWDFFGIIFDGHPALTR	not failed
MTSPSSAFPDGHGARLDAQSIRFERLLPGPIERVWAWLADADKRARWLAGGELPRQPGQTFELHFNHAALTAETAPARYAQYDRPIVARHTLLRCEPPRVLALTWGGGAGEAPSEVLFELSEAGEQVRLVLTHTRLADRAAMLDVAGGWHAHLAVLAGKLAGQAPPPFWTTLAQAEQDYEQRLLEHHHHHH	not failed
MTSQITANGTQRLPEPVSEHEAVPPPPPTAAGRPRPPTSQLFSRGNLASSRATGGDKSGLARPSTAVRAVGYAANCESAHQRFEQFFLEKAKQQTLSSRAAVDAIKDVNPQMKYKNLEEKIVKLLESSIVLAWQGSPNKLLNLDTKLAEALSKAKEAFSLDRTLHQFRDQHGENVYHNFDLTYAQYERSEMHIEALNTYSIMAKNKMFPHVNQLKLNMGNIYYSMGIYQKAVKMYRMALDSVPKSLSQLRLKIRENIGILFIRMGSYSDAASSFEFIMTERANIRSSIHLLLCYFALGDVEKVKLAFRRLCDVQTEAIESDMESETNIIKLQQQAEPIQQIGETDGYQSLNNEPVTGSVIKAEGGGKLNETVKFAATVKHRYVVQALKKDELAVYRNERRNAVKRSITMIVDLISPFIEDNYNDGYNWCIEIIKTSNLAWLANELELNKALVYLRQNDVHQAIETLQMYDRKSEGSMTASALTNLSFIYIKMASHCVNQLHEIGSLKNNAPGLINAGIVELGSHNLILASERFEGALQLQPMNFEARYNLGLVALAQNDYELAEERFELLKEQLMLPSSVQHSHVFYQLAKLQERRLESGLISNFTPGAALQAYLQVVGISASDIDSRLFEKVGSLYEQIQDHQEANQYYNEAYRINMSDIGIASSIGSYYIKLQATERALFYYERAVLADPNDPNLMLRIASCFRNSYLPTKQYLGLFQKIHARFPDNLTCIRALMQVTKSLELGDLYERYASEYTRLQSQQQERQSEQRYQQQRFPSAAKFTIRQSNEEHLKEVGENFNSVVHTQSPYTSILQFDPLGPPAERPKTGRPLQSRDDVDDDAEMNPESLLPI	failed
MTSRSATATARTSSEARAVARTQTLIKGEHGIGTVRRTTLPGGLRIVTETLPSVRSATFGIWAHVGSRDETPALNGATHYLEHLLFKGTRKRSALDISSAIDAVGGEMNAFTAKEYTCYYARVLDTDLPLAIDVVCDMLTGSLIQEEDVDVERGAILEEIAMTEDDPGDCVHDLFAHTMFGDNALGRPVLGTVDTVNALTADRIRRFYRKHYDPTHLVVAAAGNVDHNKVVRQVRAAFEKSGALKDPAAQPLAPRAGRRTVRAAGRVELIGRKTEQAHVILGMPGLARTDERRWAMGVLNTALGGGMSSRLFQEVREKRGLAYSVYSYTSGFADCGLFGVYAGCRPSQVHDVLKICRDELDHVAEHGLTDDEIGRAVGQLQGSTVLGLEDTGALMNRIGKSELCWGEQMSVDDMLARIASVTPDDVRAVARDVLGRRPSLSVIGPLKDKQASRLHDAVA	failed
MTSSPTSTQESSTSWYLLLQQLIDGESLSRSQAAELMQGWLSEAVPPELSGAILTALNFKGVSADELTGMAEVLQSQSKMGTGENYSQLPITNSPFSIIDTCGTGGDGSSTFNISTAVAFVAAAYGVPVAKHGNRSASSLTGSADVLEALGVNLGASPEKVQAALQEVGITFLFAPGWHPALKAVATLRRTLRIRTVFNLLGPLVNPLRPTGQVVGLFTPKLLTTVAQALDNLGKQKAIVLHGRERLDEAGLGDLTDLAVLSDGELQLTTINPQEVGVTPAPIGALRGGDVQENAEILKAVLQGKGTQAQQDAVALNAALALQVAGAVPLLDHAQGVSVAKEILQTGTAWAKLAQLVYFLGN	not failed
MTSSRVNSLIVGGFVLILLGGIIAAATILAGKTGSTDTYFTSYDNVTGIKYGTQVLYEGYRIGQVDEIIPEQRAEGTSFRLRLAVQKGWRIPEGSQTTIATSGLLSAVAINIRGGTAEASLTPGSEIPGGASGGMFAAINDLASEVGTLSRDGLEPLVAKLNAYVDTLGGSLADNLPAILGNARITSEAIARDLPPIIARVDRFTARLDAEVLSQKNIDGLGASIGNISAFSAELNGLGRELRQTGQTLDGMVAGSAPLVDSSLRDLRYTLRALASSIDAITFNMEGASRDMKEFSRSLRQNPGVLLRGSAPAEDGR	failed
MTSTCTICERIKLIQAHQNPYFVYELTTGYVVLADSQYFEGYTLFLAKHHVTELHHLPAHEKLRYLEEMSIVQEACAQAFHADKMNIELLGNGDAHVHWHLFPRHNGDTPNPGPVWWTPLETIYGDDVSLDIPRLSRLKRTLSVAIEATLNAREAELQALEALTRPASHRIDSN	failed

From a protein production outcome set (Wang et al. 2014)
